Source: the nanobody polyreactivity screen of Harvey et al. (2022)

Test: yeast display, Sf9 membrane polyspecificity reagent, FACS + sequencing; frameworks hold sequencing errors
Procedure, shortened: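 Sorting gates, low and high (top ~1%), were placed on anti-HA fluorescence to track expression and on streptavidin fluorescence to track reagent binding. A clone's polyreactivity label is taken from the gate it came out of. The reagent was 10% biotinylated, detergent-solubilized Sf9 membrane, applied for 1 hour at 4 °C to galactose-induced yeast display cells.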

| Sequence | polyreactivity (PSR sort gate) |
| --- | --- |
| QVQLVESGGGLVQAGGSLRLSCAASGRTFVLNAMGWYRQAPGKERELVAAITLGGGSTYADSVKGRFTISRDNAKNTVYLQMNSLKPEDTAVYYCAADFHYPDFEYWGQGTQVTVSS | low polyreactivity |
| QVQLVESGGGLVQAGGSLRLTCAASGGIFTDYTMGWYRQAPGKERELVSAITWTGGSTYYADSVKGRFTISRDNAKNTVYLQMNSLKPEDTAVYYCYVVKYVYIYSYWEYYFWGQGTQVTVSS | low polyreactivity |
| QVQLVESGGGLVQAGGSLRLSCAASGRTFFKYDMGWYRQAPAKERELVAAITWTGGSTYYADSVKGRFTISRDYAKNTVYLQMNSLKPEDTAVYYCAAADYYYVEYDYWGQGTQVTVSS | low polyreactivity |
| QVQLVESGGGLVQARGSLRLSCAASGYIINQYTKGWYRQAPGKERELVADISSGGSTKYADSVKGRFTISRDNGKNTVSLQMNSLKPEDTAVYYCNGEYDSGSPTAYDWEYDYWVQGTQVTVSS | high polyreactivity |
| QVQLVESGGGLVQAGGSLRLSCAASGITFYQYVMGRYRQAPGKERELVAAISTSGDSTYYADYVKGRFTISRDNAKNTVYLQINSLKTEDTAVYYCATYWSGHYYYWGQGTQVTVSS | high polyreactivity |
| QVQLVESGGGLVQAGGSLRLSCAASGRTFGLNVMGWYRPAPGKDRELVATISGVGSTNYADSVKGRFTISRDNAKNTVYLQMNSLKPEDTAVYYCAAGGTSGQEFGYWGQGTQVTVSS | low polyreactivity |
| QVQLVESGGGLVQAGGSLRLSCSASGSTFTYYAIGWYRTAPGEERELGAAISWRGTSTYYADSVKGRFTISRDNAKNSVYLQMNSLKTEETAVYSCAGRGLWPYDYWGQGTQVTVSS | low polyreactivity |
| QVQLVESGGGLVQAGGSLRLSCAASGITFYYYAMGWYRQAPGKERELVARISYGGGRTYYADSVKGRFTISRDNAKNTVYLQMNSLKPEDTAVYYCAARQGYRSYRRYDYWGQGTQVTVSS | high polyreactivity |
| QVQLVETGGGLVQAGGSLSLSCAASGRTCRFYAMGWYRQAPGKERELVGAISWNGGRTYYADSVKGRFTISRDNAKNSVYLQMNSLKPEDTAVYFCNARAYGSRKFEYWGQGTQVTVSS | high polyreactivity |
| QVQLVESGGGLVQAGGSLRLSCAASGRIFSYYAMGWYRQAPGKERELVAGIRSGCSTNYADSVKGRFTISRDNAKNTVYLQMNSLKPEDTAVYYCAARYFKFYSKGSFRYLYESWGQGTQVTVSS | high polyreactivity |
| QVQLVESGGGLVQAGGSLRLSCAASGFTFNRYAMGWYRQAPGKERELVASITTGGRTNYADSVKGRFTISRDNAKNTVYLQMNSLKPEDTAVYYCAADYGYFYRYYYWGQGTQVTVSS | high polyreactivity |
| QVQLVESGGGLVQAGGSLRLSCAASGFTFTNYAMGWYRQAPGKEREFVARITWSGGSTYYADSVKGRFTISRDNAKNTVYLQMNSLKPEDTAVYYCAARGWLVRSFIYDYWGQGTQVTVSS | high polyreactivity |
| QVQLVESGGGLVQAGGSLRLSCAASGIIFTGNAMGWYRQAPGKERELVAGITGSGGNTYYADSVKGRFTISRDNAKNTVYLQMNSLKPEDTAVYYCAARRHIFLLIIWSGRVDYWGQGTQVTVSS | low polyreactivity |
| QVQLVESGGGLVQAGGSLRLSCAASGSIFGYYTMGWYRQAPGKERELVAAITSGGSTHYADSVKGRFTISRDNAKKTGYLQMNSLKPEDTAVYYCAKVSYYPWRYDYWGQGTQVTVSS | low polyreactivity |
| QVQLVESGGGLVQAGGSLRLSCAASGGIFTIYAMGWYRQAPGKETELVASITGGSGSTYYADSVKGRFTISRDNAKNTVYLQMNSLKPEDTAVYYCARETYRRYGAYDYWGQGTQVTVSS | low polyreactivity |
| QVQLVESGGGLVQAGGSLRLSCAASGRTFYEYAMGWYRQAPGKERELVAAITRSGGSTYYADSVKGRFTISRDNAKNTVYLQMNSLKPEDTAVYYCAAYRLQYRVRYYTAYDYWGQGTQVTVSS | high polyreactivity |
| QVQLVESGGGLVHAGGSLRLSCAACGRIFSRNAMGWYRQAPWKERELVAAITWRGGSTYYADSVKGRFTSSRDNAKNTVYLQMNSLKPEDTAVYYCNRDYRQYGYAYSGRFYWGHGTQVTVSS | high polyreactivity |
| QVQLVESGGGLVQAGGSLRLSCAASGSIFYGYAMGWYRQAPGKEREFVAGIDSSGGSTSYADSVKGRFTISRDNAKNTVYLQMNSLKPEDTAVYYCNAPDPSDQHGDYWGQGTQVTVSS | low polyreactivity |
| QVQLVESGGGLVQAGGSLRLSSAASGSIFYRYAMGWYRQAPGKERELVAAITQSTDSTYYADSVKGRFTISRDNAKYNVYLQMNSLKPEDTAVYYCAAYLVYYRPYAYGYWGQGSQVTVSS | low polyreactivity |
| QVQLVESGGVLVQAGGSLRLSCAASGSIFASNAMGWYRQAPGKEREFVAAISWSGTRTYYADSVKGRFTISRDTAKNTVYLQMNSLKPEDTAVYYCAALTVLRNDYWGLGTQVTVSS | low polyreactivity |
| QVQLVESGGGLVQAGGSLRLSCAASGFTFGANAMGWYRQAPGKERELVAAITKRGGNTYYADSVKGRFTISRDNAKNTVYLQMNSLKPEDTAVYYCARDYTHGYDYWGQGTQVTVSS | high polyreactivity |
| QVQLVESGGGLVQAGGSLRLSCAASGSIFRSYAMGWYRQAPGKERELVATIDRSGGSTYYADSVKGRFTISRDNAKNTVYLQMNSLKPEDTAVYYCNKTPHFPRPGFNYWGQGTQVTVSS | low polyreactivity |

| Sequence | polyreactivity (PSR sort gate) |
| --- | --- |
| QVQLVESGGGLVQAGGSLRLSCAATGFIFAANAMGWYRQAPGKERELVAAINYRGSSTYYADSVKGRFTISRDNAKNTVYLQMNSLKPEDTAVYYCAARSGAQRGGGYWGQGTQVTVSS | high polyreactivity |
| QVQLVETGGGLVQAGGSLRLICAASGSTFQNNAMGCYIQAPGKERELVAAIRFSGGSTYYADSVKGRFTISRDNAKNTVYLQMNSLKPEDTAVYYCNAVVKRWSDYSYPVRYDYWGQGTQVTVSS | high polyreactivity |
| QVQLVESGGGLVQAGGSLRLSCADSGLIIARNAMVWYRHAPGTERELVAAITRGGSTYYADSVKGSFTISRDNAKNTVYLLMNSLKPEDTAVYYCNARFRRYYYYGMDYWGQGTQVTVSS | high polyreactivity |
| QVQLVESGGGLVQAGGSLRLSCAASGSIFPNNAMGWYRQAPGKERELVAAISSSARTYYADSVKGRFTISRDNAKNTVYLQMNSLKPEDTAVYYCAARWYGRFLMGYWGQGTQVTVSS | high polyreactivity |
| QVQLVDSGGGLVQEGGSLRLSCAASGLTFYSNAMGWYRQARGKERELVARISTGGSTYADSVKGRFTISRDNAKNTVYLQMNSLKPEVTAVYYCAAEYNLRTYWGDYWGQGTQVTVSS | low polyreactivity |
| QVQLVESGGGLVQAGGSLRLSCAASGSIINAYAMGWYRPAPGKERELVAAINSGGTTYYADSVKGRFTISRDNAKNTVYLQMISLKPEDTAVYYCNAVSKWAIYDYWGQGTQVTVSS | high polyreactivity |
| QVQLVESGGGLVQAGGSLRLSCAASGSIFGAYTMGGYRQAPGKERELVAAITWSGGCTYYADSVKGRFTISRDNAKNTVYLQMNSLKPEDTAVYYCAAVFLRARYKYNYWGQGTQVTVSS | high polyreactivity |
| QVQLVESGGGLVQAGGSLRLSCAASGRIFVPYAMGWSRQAPGKEREFVAAISWNTGSTYYADSVKGRFTISRDNAKNTVYLQMNSLNPVDTAVYYCAAGSGVSYEGGYKINGYWGQGTQVTVSS | high polyreactivity |
| QVQLVESGGGLVQAGGSLRLSCAASGIIISVYALGWYRQAPGKERELVATISLSSGRTYYADSVKGRFTISRDNAKNTVYFQMNCLKPEDTAVYYCNAGGRTASRRYYWGQGTQVTVSS | low polyreactivity |
| QVQLVESGGGLVQAGGSLRLSCAASGSTFDTYAMGWYRQAPGKERELVAAISRSGTSTYYADSVKGRFTISRDNAKNTVYLQMKSLKPEDTAVYYCAAYGPRVNGEIGREYYYWGQGTQVTVSS | low polyreactivity |
| QVQLVESGGGLVQAGGSLRLSCAASGRTFQNNAMGWYRQAPGKERELVAAISRSGASTYYADSVKGRFTISRDNAKNTVYLQMNSLKPEDTAVYYCAARYQRTAYDYWGQGTQVTVSS | low polyreactivity |
| QVQLVESGGGLVQAGGSLRLSCAASGSIFYYNAMGWFRQAGGKERELVAALSWSGGSTYYADSVKGRYTISRDNATNTVSLQMNSLKPEETAVYYCNAVGWYTYFSGSRKYNSWGQGTQVTVSS | low polyreactivity |
| QVQLVESGGGLVQAGGSLRFSCAASGSTFFGNTMGWYRQAPGKERELVAAISRRGGSTYYADSVKGRFTISRDNAKNTVYLQMNSLKPEDTAVYYCAKYYHSGGYTPGKYDYWGQGTQVTVSS | high polyreactivity |
| QVQLVESGGGLVQAGGSLRLSCAASGSTLATNAMGWYRQAPGKERELVAYADSVKGRFTISRDNAKNTVYLQMNSLNPEDTAVYYCNVVFRYAYGVYYTPEFYYWGQGTQVTVSS | low polyreactivity |
| QVQLVESGGGLVQEGGSLRLSCAASGNIFTTYAMGWYRQAPGKERELVAAISRSGGRTNYADSVKGRFTISRDNAKNTVYLQMNSLKPEDTAVYYCNRALKPVDSYAYGYWGQGTQVTVSS | high polyreactivity |
| QVQHVESGGGLVQARGSLRLSCSASGGTFSVYPMGWSRQAPVKERELLADISWSDASTYYADSVKGRFTISRDNAKNTVYLQMNSLKPEDTAVYYCAVSRQSGKGGSKELNDYWVQGTQVTVSS | low polyreactivity |
| QVQLVESRGGLVQAGGSLRLSCAASGSTFYAYAMGWYRQAPGKERDLVAAISSSGGSTYYADSVKGRFTISRDNAKNTVYLQMNSLKTEDTAVYYCAAYDSVQKYWILGFDYWGQGTQVTVSS | low polyreactivity |
| QVQLVESGGGLVQAGGSLRLSCAASGFTFAHNAMGWYRQAPGKERELVAAITRSGGSTYYADSVKGRFTISRDNAKNTVYLQMNSLKPEDTAVYYCNAGRRGSGYGYWGQGTQVTVSS | high polyreactivity |
| QVQLVESGGGLVQAGGSLRLSCAASGSTFRYNVMGWYRQAPGKERELVAAISSGGSTYYADSVKGRFTISRDNAKNTVYLQMNSLKPEDTAVYYCAAPRYLFFVGLGMDYWGQGTQVTVSS | high polyreactivity |
| QVQLVESGGGLVQAGGSLRLSCAASGRTFAWNAMGWYRQAPRKERELVARIRSSGSTYYADSVKGRFTISRDNAKNTVYLQMNSLKPVDTAVYFCAADIRFWYGYYYWGQGTQVTVSS | high polyreactivity |
| QVQLVESGGGLVQAGGSLRLSCAASGRTFSYYAMGWSRQAPGKERELVATIRFSGGGTYYADSVKGRFTISRDNAKNTVYLLMNSLKPEATAVYYCAALNYHKFAHKYDYWGQGTQVTVSS | low polyreactivity |
